Laboratory results taken from the supplement of paper PMC9732359.
± gives the uncertainty stated by the source.

Assay: protein stability index of a GFP-peptide fusion (yeast GPS) (PSI 1-4); higher = more stable; sorted into four equal gates, so the index is relative within each strain
Summary of the method: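 Sequencing reads from sorted gates were used to score each peptide. The library consisted of tiled 17-residue yeast protein peptides fused downstream of GFP on a Cherry-expressing plasmid, pooled and carried in yeast. Mid-log cultures in leucine-free medium were split into four equal gates by GFP/Cherry ratio, and each gate's plasmids were PCR-amplified and Illumina-sequenced. The protein stability index adds up, over all gates, the read frequency multiplied by the gate number.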

Sequence	protein stability index (doa10∆)	protein stability index (pdr5∆)	protein stability index (san1∆)	protein stability index (ubr1∆)
FKKDLVIVLSNISHLLE [SWI1]	1.86 ± 0.048	1.63 ± 0.067	1.75 ± 0.078	1.93 ± 0.061
QESSSLRLLEVTDDDRL [POP8]	2.1 ± 0.068	2.08 ± 0.078	2.5 ± 0.12	1.65 ± 0.068
ANLLPARQFGYVILTTS [RPS22A]	1.29 ± 0.053	1.35 ± 0.044	1.2 ± 0.094	1.11 ± 0.046
SRFSPEKLAVSALEQAI [YGL100W/SEH1]	2.19 ± 0.098	2.36 ± 0.12	1.9 ± 0.077	2.42 ± 0.13
KSICFENCLNNDPEILK [SWI1]	2.2 ± 0.087	2.69 ± 0.056	2.83 ± 0.068	2.7 ± 0.074
QSFQNPFTASQSNINTN [YIL149C/MLP2]	2.57 ± 0.067	2.55 ± 0.044	2.62 ± 0.053	2.73 ± 0.043
SGTPTLKKNIEPKKDKE [YOR098C/NUP1]	3.39 ± 0.19	3.29 ± 0.11	2.71 ± 0.25	3.05 ± 0.084
QRYQDLSQQQKDAQKKD [YIL149C/MLP2]	3.09 ± 0.08	3.08 ± 0.062	2.79 ± 0.071	2.94 ± 0.046
KLSQYVQEMALGGPITK [FAS2]	2.6 ± 0.083	2.74 ± 0.055	2.96 ± 0.049	2.53 ± 0.031
PLSESLRLVDDDENNPS [RRP6]	3.15 ± 0.11	3.12 ± 0.096	2.98 ± 0.084	3.08 ± 0.084
RNNVANKQPRNESFNRR [YAR002W/NUP60]	3.04 ± 0.088	3.41 ± 0.18	2.31 ± 0.12	3.24 ± 0.14
EYMVQYIDEMYNHNDGG [RRI1]	3.03 ± 0.052	3.24 ± 0.076	3.21 ± 0.14	3.19 ± 0.087
QRARDQDSIDISIKDNK [GAL11]	3.25 ± 0.1	3.12 ± 0.12	3.31 ± 0.086	3.13 ± 0.086
LGNVDAFQLADGIHYIL [PRP8]	2.74 ± 0.15	2.65 ± 0.083	2.42 ± 0.1	1.91 ± 0.042
CRVDFKNPHDIIEGINA [RPL12A]	2.19 ± 0.07	2.45 ± 0.072	1.83 ± 0.12	2.43 ± 0.05
ILRSIPDKLLGVILMFA [COB]	2.35 ± 0.06	1.58 ± 0.046	1.65 ± 0.069	1.52 ± 0.054
SQTNNSFLSGVKSLLSE [SIR4]	2.98 ± 0.069	3.26 ± 0.067	3.14 ± 0.046	3.1 ± 0.056
SFLDRKRAKEFITTLLK [SIN4]	2.35 ± 0.048	2.21 ± 0.06	2.21 ± 0.061	2.08 ± 0.042
DFDNIEFKKIPRVKGFK [SEC65]	2.84 ± 0.14	3.11 ± 0.13	2.82 ± 0.078	3.13 ± 0.088
KAPTKLDDPEAVSKDPL [DIS3]	3.35 ± 0.089	3.45 ± 0.12	3.17 ± 0.058	3.26 ± 0.068
TNNMEKIIEDLRQKHEF [SMC2]	3.12 ± 0.055	2.9 ± 0.046	3.13 ± 0.033	3.15 ± 0.033
WIQVFGLRTENVLDYFA [MED6]			2.38 ± 0.14	2.34 ± 0.067
YAIIINYTKDNEYYPMC [YCS4]	1.36 ± 0.071	1.44 ± 0.092	1.61 ± 0.13	1.51 ± 0.082
IPPPMPKNQQYRAFGSI [MED7]	2.04 ± 0.083	2.31 ± 0.093	2.42 ± 0.1	2.04 ± 0.071
SNKSNSTNESNKSISDE [SSN2]	3.04 ± 0.077	3.05 ± 0.1	3.05 ± 0.069	3.09 ± 0.087
TQKRTHVLKKNPLKNKQ [RPL4A]		2.52 ± 0.22		2.99 ± 0.14
